The target in one test is Serum albumin (human) (UniProt P02768). The test can be described thus: PIF affinity column + LC-MS/MS, CD8+ cell lysate.
Another test concerns the target Talin-1 (human) (UniProt Q9Y490). The test can be described thus: PIF affinity column + LC-MS/MS, CD8+ cell lysate.

Chain of Talin-1 (human) (Q9Y490 whole entry): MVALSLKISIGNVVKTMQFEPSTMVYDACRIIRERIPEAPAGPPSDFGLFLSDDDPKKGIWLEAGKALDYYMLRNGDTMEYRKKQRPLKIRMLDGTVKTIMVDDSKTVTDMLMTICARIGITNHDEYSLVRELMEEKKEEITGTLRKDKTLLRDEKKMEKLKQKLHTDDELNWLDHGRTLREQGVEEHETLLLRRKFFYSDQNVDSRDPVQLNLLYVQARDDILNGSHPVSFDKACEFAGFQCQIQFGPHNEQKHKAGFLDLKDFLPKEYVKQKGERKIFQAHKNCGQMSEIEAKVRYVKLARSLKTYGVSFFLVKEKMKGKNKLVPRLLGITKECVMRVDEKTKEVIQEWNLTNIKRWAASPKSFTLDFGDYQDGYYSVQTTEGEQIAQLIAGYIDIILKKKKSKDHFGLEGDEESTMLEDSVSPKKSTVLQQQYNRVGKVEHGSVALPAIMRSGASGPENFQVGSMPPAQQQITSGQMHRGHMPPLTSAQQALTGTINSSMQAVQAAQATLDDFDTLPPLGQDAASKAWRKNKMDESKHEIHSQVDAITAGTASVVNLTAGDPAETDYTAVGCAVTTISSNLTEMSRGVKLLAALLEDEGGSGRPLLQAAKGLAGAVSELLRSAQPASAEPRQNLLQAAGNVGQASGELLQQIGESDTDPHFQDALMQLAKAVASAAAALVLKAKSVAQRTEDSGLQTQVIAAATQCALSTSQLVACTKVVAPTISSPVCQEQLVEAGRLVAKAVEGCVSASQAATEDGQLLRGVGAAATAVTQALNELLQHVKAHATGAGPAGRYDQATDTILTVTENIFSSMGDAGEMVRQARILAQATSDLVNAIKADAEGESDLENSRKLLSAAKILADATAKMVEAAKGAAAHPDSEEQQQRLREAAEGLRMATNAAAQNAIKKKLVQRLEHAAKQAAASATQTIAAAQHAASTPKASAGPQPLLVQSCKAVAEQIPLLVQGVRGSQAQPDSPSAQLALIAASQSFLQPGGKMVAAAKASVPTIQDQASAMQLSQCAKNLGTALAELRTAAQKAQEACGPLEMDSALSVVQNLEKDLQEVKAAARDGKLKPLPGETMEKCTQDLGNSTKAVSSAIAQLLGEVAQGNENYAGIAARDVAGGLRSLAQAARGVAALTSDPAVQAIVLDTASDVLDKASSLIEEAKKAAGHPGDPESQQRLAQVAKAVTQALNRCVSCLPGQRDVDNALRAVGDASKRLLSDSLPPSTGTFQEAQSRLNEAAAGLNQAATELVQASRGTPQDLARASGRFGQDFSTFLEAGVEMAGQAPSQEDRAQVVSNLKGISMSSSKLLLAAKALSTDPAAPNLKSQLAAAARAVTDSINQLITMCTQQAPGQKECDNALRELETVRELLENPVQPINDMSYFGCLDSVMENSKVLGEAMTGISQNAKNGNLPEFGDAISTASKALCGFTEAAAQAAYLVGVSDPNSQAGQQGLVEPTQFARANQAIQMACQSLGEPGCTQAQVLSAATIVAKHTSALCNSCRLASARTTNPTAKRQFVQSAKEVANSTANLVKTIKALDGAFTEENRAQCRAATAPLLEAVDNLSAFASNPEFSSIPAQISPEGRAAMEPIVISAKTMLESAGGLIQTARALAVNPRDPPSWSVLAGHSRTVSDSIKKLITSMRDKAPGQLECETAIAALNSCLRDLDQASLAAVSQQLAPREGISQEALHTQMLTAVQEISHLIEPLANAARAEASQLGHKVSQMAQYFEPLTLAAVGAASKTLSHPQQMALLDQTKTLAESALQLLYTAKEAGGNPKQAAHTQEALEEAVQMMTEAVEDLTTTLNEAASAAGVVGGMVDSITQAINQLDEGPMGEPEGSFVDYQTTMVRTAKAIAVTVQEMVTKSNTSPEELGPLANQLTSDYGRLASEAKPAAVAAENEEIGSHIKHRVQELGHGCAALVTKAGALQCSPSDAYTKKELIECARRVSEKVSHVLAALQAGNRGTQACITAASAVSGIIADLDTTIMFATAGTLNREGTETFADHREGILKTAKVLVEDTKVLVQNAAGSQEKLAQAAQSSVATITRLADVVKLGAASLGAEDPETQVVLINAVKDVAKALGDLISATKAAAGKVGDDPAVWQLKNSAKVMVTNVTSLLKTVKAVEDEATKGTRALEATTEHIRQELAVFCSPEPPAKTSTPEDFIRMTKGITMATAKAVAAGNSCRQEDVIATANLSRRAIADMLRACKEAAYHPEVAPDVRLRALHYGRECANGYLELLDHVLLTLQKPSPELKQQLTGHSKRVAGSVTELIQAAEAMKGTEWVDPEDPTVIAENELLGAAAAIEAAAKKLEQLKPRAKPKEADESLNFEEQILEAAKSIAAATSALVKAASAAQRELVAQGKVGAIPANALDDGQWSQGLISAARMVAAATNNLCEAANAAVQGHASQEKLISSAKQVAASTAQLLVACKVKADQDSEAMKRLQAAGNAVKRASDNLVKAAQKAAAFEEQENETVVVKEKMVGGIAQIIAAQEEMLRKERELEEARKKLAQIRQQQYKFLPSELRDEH

As for “PIF-resin (PIF15 affinity ligand on agarose) (peptide)”, in the test with Serum albumin (human), the Inject 3 came to 8. Further, in the test with Talin-1 (human), the Ave was determined as 1, the Inject 1 came to 1, the Inject 2 is 1 and the Inject 3 turned out to be 1.

Source of the values: patent publication US20230013244A1 (BioIncept, LLC, priority 2014, published 2023).
